This assay concerns the target T1, FcγRIIa R (extracellular domain with a His tag at the C terminus) (human, UniProt P12318 34-217).
T1 construct: extracellular domain; expressed in FreeStyle293 cells; also called FcgRIIa R; FcγRIIa type R; not shown: His tag at the C terminus
T1 sequence (looked up): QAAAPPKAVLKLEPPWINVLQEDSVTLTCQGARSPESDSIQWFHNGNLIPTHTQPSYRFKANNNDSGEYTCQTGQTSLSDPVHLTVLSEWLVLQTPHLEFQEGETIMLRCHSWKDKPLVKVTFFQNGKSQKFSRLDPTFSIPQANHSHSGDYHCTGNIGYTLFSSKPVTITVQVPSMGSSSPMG
In words: SPR Biacore, relative binding. A general note: In SPR one partner is held on a chip, and binding of the other changes the refractive index at the surface.

B1: GpH7-A5/GpH7-B3 variant L235_20W/GpL16-k0 (antibody, human IgG1, kappa)
heavy 1: not shown
heavy 2: not shown
light: DIVMTQSPLSLPVTPGEPASISCQASESLVHSNRNTYLHWYLQKPGQSPQLLIYKVSNRFSGVPDRFSGSGSGTDFTLKISRVEAEDVGVYYCSQNTHVPPTFGQGTKVEIERTVAAPSVFIFPPSDEQLKSGTASVVCLLNNFYPREAKVQWKVDNALQSGNSQESVTEQDSKDSTYSLSSTLTLSKADYEKHKVYACEVTHQGLSSPVTKSFNRGEC
notes: heterodimerized; mutation in one H chain; also called He Ab
In the case of B1, the He/Con_2aR is 131 % of GpH7-A5/GpH7-B3/GpL16-k0 (=100).

B2: GpH7-A5/GpH7-B3 variant P238_03V/GpL16-k0 (antibody, human IgG1, kappa)
heavy 1: not shown
heavy 2: not shown
light: DIVMTQSPLSLPVTPGEPASISCQASESLVHSNRNTYLHWYLQKPGQSPQLLIYKVSNRFSGVPDRFSGSGSGTDFTLKISRVEAEDVGVYYCSQNTHVPPTFGQGTKVEIERTVAAPSVFIFPPSDEQLKSGTASVVCLLNNFYPREAKVQWKVDNALQSGNSQESVTEQDSKDSTYSLSSTLTLSKADYEKHKVYACEVTHQGLSSPVTKSFNRGEC
notes: as for B1
Turning to B2, the He/Con_2aR is 120 % of GpH7-A5/GpH7-B3/GpL16-k0 (=100).

B3: GpH7-A5/GpH7-B3 variant P331_15Y/GpL16-k0 (antibody, human IgG1, kappa)
heavy 1: not shown
heavy 2: not shown
light: DIVMTQSPLSLPVTPGEPASISCQASESLVHSNRNTYLHWYLQKPGQSPQLLIYKVSNRFSGVPDRFSGSGSGTDFTLKISRVEAEDVGVYYCSQNTHVPPTFGQGTKVEIERTVAAPSVFIFPPSDEQLKSGTASVVCLLNNFYPREAKVQWKVDNALQSGNSQESVTEQDSKDSTYSLSSTLTLSKADYEKHKVYACEVTHQGLSSPVTKSFNRGEC
notes: as for B1
Turning to B3, the He/Con_2aR was 112 % of GpH7-A5/GpH7-B3/GpL16-k0 (=100).

B4: GpH7-A5/GpH7-B3 variant L328_13S/GpL16-k0 (antibody, human IgG1, kappa)
heavy 1: not shown
heavy 2: not shown
light: DIVMTQSPLSLPVTPGEPASISCQASESLVHSNRNTYLHWYLQKPGQSPQLLIYKVSNRFSGVPDRFSGSGSGTDFTLKISRVEAEDVGVYYCSQNTHVPPTFGQGTKVEIERTVAAPSVFIFPPSDEQLKSGTASVVCLLNNFYPREAKVQWKVDNALQSGNSQESVTEQDSKDSTYSLSSTLTLSKADYEKHKVYACEVTHQGLSSPVTKSFNRGEC
notes: as for B1
Regarding B4, the He/Con_2aR was 117 % of GpH7-A5/GpH7-B3/GpL16-k0 (=100).

B5: GpH7-A5/GpH7-B3 variant S239_08L/GpL16-k0 (antibody, human IgG1, kappa)
heavy 1: not shown
heavy 2: not shown
light: DIVMTQSPLSLPVTPGEPASISCQASESLVHSNRNTYLHWYLQKPGQSPQLLIYKVSNRFSGVPDRFSGSGSGTDFTLKISRVEAEDVGVYYCSQNTHVPPTFGQGTKVEIERTVAAPSVFIFPPSDEQLKSGTASVVCLLNNFYPREAKVQWKVDNALQSGNSQESVTEQDSKDSTYSLSSTLTLSKADYEKHKVYACEVTHQGLSSPVTKSFNRGEC
notes: as for B1
As for B5, the He/Con_2aR is 122 % of GpH7-A5/GpH7-B3/GpL16-k0 (=100).

B6: GpH7-A5/GpH7-B3 variant P331_04F/GpL16-k0 (antibody, human IgG1, kappa)
heavy 1: not shown
heavy 2: not shown
light: DIVMTQSPLSLPVTPGEPASISCQASESLVHSNRNTYLHWYLQKPGQSPQLLIYKVSNRFSGVPDRFSGSGSGTDFTLKISRVEAEDVGVYYCSQNTHVPPTFGQGTKVEIERTVAAPSVFIFPPSDEQLKSGTASVVCLLNNFYPREAKVQWKVDNALQSGNSQESVTEQDSKDSTYSLSSTLTLSKADYEKHKVYACEVTHQGLSSPVTKSFNRGEC
notes: as for B1
Regarding B6, the He/Con_2aR was 111 % of GpH7-A5/GpH7-B3/GpL16-k0 (=100).

B7: GpH7-A5/GpH7-B3 variant P238_04F/GpL16-k0 (antibody, human IgG1, kappa)
heavy 1: not shown
heavy 2: not shown
light: DIVMTQSPLSLPVTPGEPASISCQASESLVHSNRNTYLHWYLQKPGQSPQLLIYKVSNRFSGVPDRFSGSGSGTDFTLKISRVEAEDVGVYYCSQNTHVPPTFGQGTKVEIERTVAAPSVFIFPPSDEQLKSGTASVVCLLNNFYPREAKVQWKVDNALQSGNSQESVTEQDSKDSTYSLSSTLTLSKADYEKHKVYACEVTHQGLSSPVTKSFNRGEC
notes: as for B1
Consider B7, for which the He/Con_2aR is 174 % of GpH7-A5/GpH7-B3/GpL16-k0 (=100).

B8: GpH7-A5/GpH7-B3 variant P331_16H/GpL16-k0 (antibody, human IgG1, kappa)
heavy 1: not shown
heavy 2: not shown
light: DIVMTQSPLSLPVTPGEPASISCQASESLVHSNRNTYLHWYLQKPGQSPQLLIYKVSNRFSGVPDRFSGSGSGTDFTLKISRVEAEDVGVYYCSQNTHVPPTFGQGTKVEIERTVAAPSVFIFPPSDEQLKSGTASVVCLLNNFYPREAKVQWKVDNALQSGNSQESVTEQDSKDSTYSLSSTLTLSKADYEKHKVYACEVTHQGLSSPVTKSFNRGEC
notes: as for B1
B8: the He/Con_2aR is 114 % of GpH7-A5/GpH7-B3/GpL16-k0 (=100).

B9: GpH7-A5/GpH7-B3 variant P271_08L/GpL16-k0 (antibody, human IgG1, kappa)
heavy 1: not shown
heavy 2: not shown
light: DIVMTQSPLSLPVTPGEPASISCQASESLVHSNRNTYLHWYLQKPGQSPQLLIYKVSNRFSGVPDRFSGSGSGTDFTLKISRVEAEDVGVYYCSQNTHVPPTFGQGTKVEIERTVAAPSVFIFPPSDEQLKSGTASVVCLLNNFYPREAKVQWKVDNALQSGNSQESVTEQDSKDSTYSLSSTLTLSKADYEKHKVYACEVTHQGLSSPVTKSFNRGEC
notes: as for B1
B9: the He/Con_2aR is 104 % of GpH7-A5/GpH7-B3/GpL16-k0 (=100).

B10: GpH7-A5/GpH7-B3 variant S239_18N/GpL16-k0 (antibody, human IgG1, kappa)
heavy 1: not shown
heavy 2: not shown
light: DIVMTQSPLSLPVTPGEPASISCQASESLVHSNRNTYLHWYLQKPGQSPQLLIYKVSNRFSGVPDRFSGSGSGTDFTLKISRVEAEDVGVYYCSQNTHVPPTFGQGTKVEIERTVAAPSVFIFPPSDEQLKSGTASVVCLLNNFYPREAKVQWKVDNALQSGNSQESVTEQDSKDSTYSLSSTLTLSKADYEKHKVYACEVTHQGLSSPVTKSFNRGEC
notes: as for B1
In the case of B10, the He/Con_2aR was 111 % of GpH7-A5/GpH7-B3/GpL16-k0 (=100).

B11: GpH7-A5/GpH7-B3 variant S267_06M/GpL16-k0 (antibody, human IgG1, kappa)
heavy 1: not shown
heavy 2: not shown
light: DIVMTQSPLSLPVTPGEPASISCQASESLVHSNRNTYLHWYLQKPGQSPQLLIYKVSNRFSGVPDRFSGSGSGTDFTLKISRVEAEDVGVYYCSQNTHVPPTFGQGTKVEIERTVAAPSVFIFPPSDEQLKSGTASVVCLLNNFYPREAKVQWKVDNALQSGNSQESVTEQDSKDSTYSLSSTLTLSKADYEKHKVYACEVTHQGLSSPVTKSFNRGEC
notes: as for B1
Take B11: the He/Con_2aR was 122 % of GpH7-A5/GpH7-B3/GpL16-k0 (=100).

B12: GpH7-A5/GpH7-B3 variant S239_10E/GpL16-k0 (antibody, human IgG1, kappa)
heavy 1: not shown
heavy 2: not shown
light: DIVMTQSPLSLPVTPGEPASISCQASESLVHSNRNTYLHWYLQKPGQSPQLLIYKVSNRFSGVPDRFSGSGSGTDFTLKISRVEAEDVGVYYCSQNTHVPPTFGQGTKVEIERTVAAPSVFIFPPSDEQLKSGTASVVCLLNNFYPREAKVQWKVDNALQSGNSQESVTEQDSKDSTYSLSSTLTLSKADYEKHKVYACEVTHQGLSSPVTKSFNRGEC
notes: as for B1
For B12, the He/Con_2aR was 135 % of GpH7-A5/GpH7-B3/GpL16-k0 (=100).

B13: GpH7-A5/GpH7-B3 variant S267_03V/GpL16-k0 (antibody, human IgG1, kappa)
heavy 1: not shown
heavy 2: not shown
light: DIVMTQSPLSLPVTPGEPASISCQASESLVHSNRNTYLHWYLQKPGQSPQLLIYKVSNRFSGVPDRFSGSGSGTDFTLKISRVEAEDVGVYYCSQNTHVPPTFGQGTKVEIERTVAAPSVFIFPPSDEQLKSGTASVVCLLNNFYPREAKVQWKVDNALQSGNSQESVTEQDSKDSTYSLSSTLTLSKADYEKHKVYACEVTHQGLSSPVTKSFNRGEC
notes: as for B1
Turning to B13, the He/Con_2aR is 116 % of GpH7-A5/GpH7-B3/GpL16-k0 (=100).

B14: GpH7-A5/GpH7-B3 variant P331_20W/GpL16-k0 (antibody, human IgG1, kappa)
heavy 1: not shown
heavy 2: not shown
light: DIVMTQSPLSLPVTPGEPASISCQASESLVHSNRNTYLHWYLQKPGQSPQLLIYKVSNRFSGVPDRFSGSGSGTDFTLKISRVEAEDVGVYYCSQNTHVPPTFGQGTKVEIERTVAAPSVFIFPPSDEQLKSGTASVVCLLNNFYPREAKVQWKVDNALQSGNSQESVTEQDSKDSTYSLSSTLTLSKADYEKHKVYACEVTHQGLSSPVTKSFNRGEC
notes: as for B1
Take B14: the He/Con_2aR was 110 % of GpH7-A5/GpH7-B3/GpL16-k0 (=100).

B15: GpH7-A5/GpH7-B3 variant P331_02A/GpL16-k0 (antibody, human IgG1, kappa)
heavy 1: not shown
heavy 2: not shown
light: DIVMTQSPLSLPVTPGEPASISCQASESLVHSNRNTYLHWYLQKPGQSPQLLIYKVSNRFSGVPDRFSGSGSGTDFTLKISRVEAEDVGVYYCSQNTHVPPTFGQGTKVEIERTVAAPSVFIFPPSDEQLKSGTASVVCLLNNFYPREAKVQWKVDNALQSGNSQESVTEQDSKDSTYSLSSTLTLSKADYEKHKVYACEVTHQGLSSPVTKSFNRGEC
notes: as for B1
On to B15, for which the He/Con_2aR was 106 % of GpH7-A5/GpH7-B3/GpL16-k0 (=100).

B16: GpH7-A5/GpH7-B3 variant L328_14T/GpL16-k0 (antibody, human IgG1, kappa)
heavy 1: not shown
heavy 2: not shown
light: DIVMTQSPLSLPVTPGEPASISCQASESLVHSNRNTYLHWYLQKPGQSPQLLIYKVSNRFSGVPDRFSGSGSGTDFTLKISRVEAEDVGVYYCSQNTHVPPTFGQGTKVEIERTVAAPSVFIFPPSDEQLKSGTASVVCLLNNFYPREAKVQWKVDNALQSGNSQESVTEQDSKDSTYSLSSTLTLSKADYEKHKVYACEVTHQGLSSPVTKSFNRGEC
notes: as for B1
Take B16: the He/Con_2aR was 119 % of GpH7-A5/GpH7-B3/GpL16-k0 (=100).

The values above are taken from patent US20180155451A1 (published 2018).
